Experimental data: article PMC5706988

Molecular target: zonula occludens-1 (ZO-1) (UniProt Q07157)
Assay: anti-ZO-1 co-IP, Cx43 blot
Conditions: reference: wild type; sites S373

Q: How did the “binding against the reference” value turn out when “connexin43 (Cx43) (from UniProt P08050) S373A” was run?
A: The value was “stronger”.
